Values of other authors, collected in article PMC3526765.

Target: Cys30 (UniProt position 49, FFSFFCPHCYQ)
Conditions: reduced DsbA (free Cys30 thiol/thiolate); inferred from context, not stated explicitly

In the case of “Thiol:disulfide interchange protein DsbA (EcDsbA) (Escherichia coli (K12))”, the pKa is listed as ~3.3.
